For series [1], the system named is S. cerevisiae strain sKR-024. Description: Growth of synthetic yeast strain sKR-024 expressing EPSPS variants with or without glyphosate. The following applies: for growth in yeast minimal media without glyphosate: 0 mM glyphosate; for order of glyphosate tolerance: 5 mM glyphosate, FIG. 1 Panel C; for glyphosate tolerance in synthetic yeast host: mutants isolated from directed evolution. Format: cell-based, Saccharomyces cerevisiae. The method, then:
EPSPS variants were re-cloned into a clean p416-Core1p backbone and transformed into strain sKR-024 as described above. Colonies were then picked in triplicate into YSC-Ura-Leu and outgrown for 2 days at 30° C. Cultures were then diluted back to OD 0.001 in yeast minimal media (YMM) containing varying amounts of glyphosate as indicated. Growth rate measurements were then obtained using an Infinite M200 PRO microplate reader (Tecan, Männedorf, Switzerland) with incubation at 30° C. for 72-120 hours depending on growth rate of selected variants.
To determine if this system could further corroborate observations from previous literature, the well-studied EPSPS mutants T102I and P106S, and the combined double mutant TIPS (T102I-P106S) were generated and complemented into this yeast system. These mutations were reported to result in varying degrees of glyphosate resistance.
Having established low copy number and weak promoter expression of EPSPS variants, it was sought to recharacterize phenotypes under field conditions that are used in planta. […] It has been reported previously that under standard glyphosate foliar application, 0.3 mM or more of glyphosate (gly) can accumulate in a plant's root nodules and meristems. […] These trends support reported literature of mutants P106S and TIPS grown in various plant hosts. As a result, the present synthetic yeast model system closely resembles in planta observations and thus can be used to select for dual-trait EPSPS variants aimed at both enzymatic efficiency and glyphosate resistance.
Select mutants isolated from the final directed evolution campaign with the improved selection strategy were further evaluated in assorted glyphosate concentrations to determine growth characteristics. Mutants isolated from an EPSPS background were evaluated in media containing 0 mM and 0.25 mM glyphosate with the latter being the concentration at which wild-type EPSPS cannot grow after 100 hours. […] The non-glyphosate mono selection highlighted in blue represents mutations resulting from 5 subcultures in 0 mM glyphosate. The low glyphosate dual selection highlighted in light green represents mutants resulting from an additional subculture into 0.5 mM glyphosate. Lastly, the high glyphosate dual selection highlighted in dark green represent mutations isolated after subcultures in increasing levels of glyphosate, up to 10 mM.

The test system of the next series is transgenic maize plants. Description: Maize transformation with glyphosate selection, plantlet recovery and quality checks. The series is classed as in vivo, Zea mays. An excerpt:
Maize was used as a model system to test the functionality of the EPSPS variants because of detailed previous characterization of glyphosate tolerance in maize and a suitable transgenic plant generation protocol that relies on glyphosate. Plant transformation vectors were generated in which the native maize EPSPS sequence was used, which includes the native gene promoter elements, the native introns and exons and the native 3′ untranslated region and introduced mutations that corresponded to each of the selected amino acid changes. The native sequence was used to mimic as closely as possible how the selected EPSPS variants would perform if the variants were introduced directly in the genome without the help of strong expression elements. The following variants were selected for testing in a transgenic maize system: TIPS (as a control); TIPS-P126S-M217L-K296R; TIPS-P126S-K296R; T102I-P126S-K296R (where only the T102I change is present); P106S-P126S-K296R (where only the P106S change is present); and P126S-K296R (where neither of the TIPS changes are present).
Transgenic maize plants that expressed each of the six EPSPS variants were generated to determine if the variants conferred glyphosate tolerance to plants. The full DNA sequence encoding TIPS EPSPS (SEQ ID NO:1) was cloned from maize genomic DNA. In this sequence, the promoter and 5′ UTR are nucleotides 1:2556; the chloroplast transit peptide sequence is nucleotides 2557:2742; EXON 1 is nucleotides 2743:2856; INTRON 1 is nucleotides 2857:3384; EXON 2 is nucleotides 3385:3626; INTRON 2 is nucleotides 3627:3725; EXON 3 is nucleotides 3726:3879; INTRON 3 is nucleotides 3880:4152; EXON 4 is nucleotides 4153:4367; INTRON 4 is nucleotides 4368:4877; EXON 5 is nucleotides 4878:4995; INTRON 5 is nucleotides 4996:5155; EXON 6 is nucleotides 5156:5366; INTRON 6 is nucleotides 5367:5446; EXON 7 is nucleotides 5447:5508; INTRON 7 is nucleotides 5509:5617; EXON 8 is nucleotides 5618:5836; and the 3′ UTR is nucleotides 5837:6368. Mutations were then introduced into the EPSPS coding sequence in order to produce each of the six EPSPS variants to be tested. These mutated full genomic DNA sequences were then each cloned as a single expression cassette into plant transformation vectors.
Agrobacterium tumefaciens-mediated plant transformation was performed using methods known in the art. Glyphosate selection was used to select for transgenic events containing the transgene of interest and further screened for only those EPSPS variants that provided effective glyphosate tolerance in a plant cell. While all six EPSPS variants began the transformation process with the same amount of starting maize cellular material, there were differences in the number of small plantlets recovered that were capable of being transplanted to greenhouse soil media (Table 4). Transgenic events were further analyzed to determine transgene copy number. Healthy events with single copy of the transgene of interest were grown in the greenhouse soil media. Only three of the six EPSPS variants had more than one plant surviving. Up to twenty-five of these developing R0 plants were transplanted to larger pots and allowed to grow to maturity for seed collection in the greenhouse.

In another series the test system is maize EPSPS. Nature of the series: In vitro characterization of EPSPS mutants (EnzChek phosphate assay, Michaelis-Menten kinetics, glyphosate Ki). Particulars: for Km: apparent Km, mean±S.E.; for Ki: inhibitory constant for glyphosate, no unit in table (around 800 μM). The series is classed as biochemical, Zea mays. On the procedure:
Activity was determined by quantifying release of Pi, coupled to a reaction with MESG, catalyzed by purine-nucleoside phosphorylase using the EnzChek Phosphate Assay Kit from Invitrogen, first published in 1992. 95 μL of master mix was added to each well and 5 μL of the varied substrate dilutions were multi-channeled into the plate to start the reaction simultaneously for all conditions. Absorbance measurements at 360 nm were taken every 10 seconds for 3 minutes to capture the initial reaction rate of each condition. Varying levels of substrate were added to generate the resulting reaction rate curves. Each condition was performed in triplicate. Ki was determined as previously described (Lu, et al., Protein Engineering, Design and Selection 30:395-399 (2017)). Data was fit to the Michaelis-Menten kinetics equation and were also validated through GraphPad Prism's built-in function for each variant.
For protein expression of EPSPS and its variants, E. coli BL21 (DE3) was used as the expression host. Electrocompetent cells were transformed with the corresponding constructed plasmids, pET28a (+) with selected EPSPS variants (wild-type, TIPS, TIPS P126S, TIPS K296R, TIPS P126S/K296R). A single colony of an E. coli BL21 (DE3) strain harboring one of the constructed plasmids was inoculated into 2 mL of Luria Bertani broth (LB) medium with 50 μg/mL kanamycin and grown overnight at 37° C./225 rpm. The overnight-grown culture (using 100 μl) was scaled up with 2000-fold dilution in a 500-mL triple baffled shake flask and grown to a cell density of 0.8 (optical density [OD600]) at 37° C./225 rpm. Protein expression was induced by adding 0.2 mM of isopropyl β-D-1-thiogalactopyranoside (IPTG) and cells were cultured for 24 hours at 20° C./225 rpm. The induced cell culture was harvested by centrifugation at 4,000 g and 4° C. for 20 mins. Cell pellets were then resuspended in 25 mL of Dulbecco's Phosphate Buffered Saline (DPBS) (Thermo Fisher Scientific, Waltham, MA) pH 7.0 buffer containing 10 mM imidazole, 1 g/L of lysozyme and 5 μl of Pierce™ Universal Nuclease (Thermo Fisher Scientific, Waltham, MA), followed by mixing on a rocker for 30 mins at 4° C. Subsequently, cells were lysed by sonication and the resulting cell lysate was centrifuged at 14,000 g and 4° C. for 20 minutes to obtain the supernatant that contains soluble proteins. Target proteins from the supernatant was purified by HisPur™ Ni-NTA Resin (Thermo Fisher Scientific, Waltham, MA) according to the manufacturer's instruction.
The eluate was dialyzed with 3C protease added to the dialysis cassette, into the appropriate buffer followed by size-exclusion fast protein liquid chromatography. All EPSP synthase variants were stored in 20 mM Tris (pH 7.5), 100 mM NaCl and 10 mM β-mercaptoethanol. The protein concentration was then determined by using the Coomassie Plus Bradford Assay kit (Thermo Fisher Scientific) and the Infinite M200 PRO microplate reader (Tecan, Männedorf, Switzerland) to measure the absorbance of assay mixtures. The presence and purity of the purified proteins were assessed by sodium dodecyl sulfate-polyacrylamide gel electrophoresis.
Enzymatic activity, including inhibitory constant Ki, for EPSPS and TIPS closely corroborate values determined by previous reports. Mutations P126S and K296R have beneficial effects on their own to both Km and kcat and are additive when combined, similar to the observations of the in vivo growth characterization. Furthermore, the high Ki is maintained for each of the variants, showing similar or slightly higher values of around 800 μM compared to the starting point, TIPS. These findings confirm the phenotype endowed by the dual-trait selection pressure employed during the directed evolution campaigns. Kinetic parameters of maize EPSPS with mutations discovered through directed evolution. In Table 4, initial velocity data were measured in triplicate and fit to the Michaelis-Menten equation. […]

The mark [2] stands for this setting: PEP at saturation (roughly 10 times its Km), read-out: Km (S3P).
Where [3] appears, read: S3P at saturation (roughly 10 times its Km), read-out: Km (PEP).

Substitutions are numbered along the chain they refer to. Names may count otherwise. Read-outs that look alike come from different tables or passages of the source.

B1: P106S: well-studied EPSPS single mutant P106S (protein)
chain: AGAEEIVLQPIKEISGTVKLPGSKSLSNRILLLAALSEGTTVVDNLLNSEDVHYMLGALRTLGLSVEADKAAKRAVVVGCGGKFPVEDSKEEVQLFLGNAGTAMRSLTAAVTAAGGNATYVLDGVPRMRERPIGDLVVGLKQLGADVDCFLGTDCPPVRVNGIGGLPGGKVKLSGSISSQYLSALLMAAPLALGDVEIEIIDKLISIPYVEMTLRLMERFGVKAEHSDSWDRFYIKGGQKYKSPKNAYVEGDASSASYFLAGAAITGGTVTVEGCGTTSLQGDVKFAEVLEMMGAKVTWTETSVTVTGPPREPFGRKHLKAIDVNMNKMPDVAMTLAVVALFADGPTAIRDVASWRVKETERMVAIRTELTKLGASVEEGPDYCIITPPEKLNVTAIDTYDDHRMAMAFSLAACAEVPVAIRDPGCTRKTFPDYFDVLSTFVKN
In the case of B1, in series [1], the “growth in yeast minimal media without glyphosate” value is “grew very similarly” and the “order of glyphosate tolerance” value is “P106S<T102I<TIPS”. The growth in glyphosate result in series [1] (0.5 mM glyphosate, Core1p promoter) is “slightly higher growth than EPSPS after 80 hours”. In addition, the growth in glyphosate entry in series [1] (5 mM glyphosate (high levels)) was “no growth”.

B2: T102I-P126S-K296R: maize EPSPS variant, SEQ ID NO:12 (protein)
chain: B1 chain with T102I, S106P, P126S, K296R
modifications: Zea mays
Regarding B2, in the series with transgenic maize plants (in vivo), the “Number of young plants passing quality control checks” value was found to be 1. The “Number of plantlets generated” value in the series with transgenic maize plants (under glyphosate selection, same amount of starting material) is recorded as 69.

B3: P106S-K296R: P106S scaffold carrying ported mutation(s), as worded in b196 (protein)
chain: B1 chain with K296R
Consider B3, for which, in series [1] (5 mM glyphosate (high levels)), the growth in glyphosate entry is “observable growth”.

B4: TIPS-K296R: maize EPSPS variant, SEQ ID NO:16 (protein)
chain: B1 chain with T102I, K296R
modifications: Zea mays
On to B4, for which the Km amounted to 16.5 µM with maize EPSPS (setting [2]) and 24 µM with maize EPSPS (setting [3]). The same molecule returned a Ki on maize EPSPS of 841 µM.

B5: TIPS-P126S: maize EPSPS variant, SEQ ID NO:15 (protein)
chain: B1 chain with T102I, P126S
modifications: Zea mays
For B5, the results for the Km in the series with maize EPSPS (setting [2]) and in the series with maize EPSPS (setting [3]) were 28.2 µM and 13.7 µM, respectively. Further, the Ki on maize EPSPS was found to be 859 µM.

B6: TIPS-V66L-M104L: maize EPSPS variant, SEQ ID NO:17 (protein)
chain: B1 chain with V66L, T102I, M104L
modifications: Zea mays
On to B6, for which, in series [1], the “growth in yeast minimal media without glyphosate” value was “high growth in non-glyphosate” and the “glyphosate tolerance in synthetic yeast host” value is “high glyphosate tolerance”.

B7: TIPS-1177V: maize EPSPS variant, SEQ ID NO:21 (protein)
chain: B1 chain with T102I, I177V
modifications: Zea mays
For the molecule B7, the “glyphosate tolerance in synthetic yeast host” value in series [1] is “moderate glyphosate tolerance”.

B8: T102I: well-studied EPSPS single mutant T102I (protein)
chain: B1 chain with T102I, S106P
B8: the “order of glyphosate tolerance” value in series [1] is listed as “P106S<T102I<TIPS”.

B9: TIPS-P126L: maize EPSPS variant, SEQ ID NO:22 (protein)
chain: B1 chain with T102I, P126L
modifications: Zea mays
Regarding B9, in series [1], the “glyphosate tolerance in synthetic yeast host” value is reported as “moderate glyphosate tolerance”.

What is called Km is the concentration of substrate that gives half-maximal velocity. Broadly, the Ki is a measure of affinity in units of concentration, obtained from inhibition or displacement. Higher therefore signals lower affinity.

The values are drawn from US20260275304A1, “METHODS AND COMPOSITIONS FOR GLYPHOSATE TOLERANCE IN PLANTS” (Monsanto Technology LLC, priority 2023, published 2026).
